Among the data in the supplement of paper PMC10567573 are protein stability index values, retold here.

To fix the notation:
B1: WEE1 (parent)
chain: FISRTSIPNAASEEGDEDDWASNK
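Also: lentivirally expressed fusions sorted by FACS into six bins by GFP to DsRed ratio, PSI derived from sequencing read proportions per bin multiplied by bin number.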

The series covers variants of B1. In words: protein stability index of a GFP-peptide fusion (GPS, HEK-293T) (PSI 1-6); higher = more stable. The settings on record: c terminus: a fixed tail appended.
As to FISRTSIPNAASEEGDEDDKASNK [W20K], the protein stability index came to 3.42.

For FISRTSIPNAASEEGDEDDHASNK [W20H], the protein stability index was 4.44.

For FISRTSIPNAASEEGDEDDNASNK [W20N], the protein stability index worked out at 4.51.

As for FISRTSIPNAASEEGDEDDAASNK [W20A], the protein stability index was found to be 4.79.

Consider FISRTSIPNAASEEGDEDDIASNK [W20I], for which the protein stability index worked out at 4.21.

Take FISRTSIPNAASEEGDEDDCASNK [W20C]: the protein stability index is 4.75.

On to FISRTSIPNAASEEGDEDDFASNK [W20F], for which the protein stability index is 4.81.

In the case of FISRTSIPNAASEEGDEDDEASNK [W20E], the protein stability index was found to be 4.75.

For FISRTSIVNAASEEGDEDDWASNK [P8V], the protein stability index was 3.48.

For FISRTSIDNAASEEGDEDDWASNK [P8D], the protein stability index was found to be 4.68.

With FISRTSIYNAASEEGDEDDWASNK [P8Y], the protein stability index stood at 2.16.

For the variant FISRTSIPNAASEEGDEDDWQSNK [A21Q], the protein stability index was 3.62.

FISRTSIPNAASEEGDEDDWYSNK [A21Y]: the protein stability index amounted to 3.9.

Consider FISRTSIPNAASEEGDEDDWTSNK [A21T], for which the protein stability index amounted to 4.59.

For FISRTSIPNAASEEGDEDDWKSNK [A21K], the protein stability index stood at 4.21.

With FISRTSIPNAASEEGDEDDWHSNK [A21H], the protein stability index stood at 4.09.

For DISRTSIPNAASEEGDEDDWASNK [F1D], the protein stability index was found to be 5.56.

Take MISRTSIPNAASEEGDEDDWASNK [F1M]: the protein stability index turned out to be 5.24.

On to FISRTSIPNASSEEGDEDDWASNK [A11S], for which the protein stability index stood at 4.23.

As for FISRTSIPNACSEEGDEDDWASNK [A11C], the protein stability index came to 3.47.

Turning to FISRTSIPNALSEEGDEDDWASNK [A11L], the protein stability index was found to be 4.13.

As for FISRTSIPNAMSEEGDEDDWASNK [A11M], the protein stability index worked out at 3.95.

FISRTSIPNAASEEGDEVDWASNK [D18V]: the protein stability index came out at 3.35.

Take FISRTSIPNAASEEGDESDWASNK [D18S]: the protein stability index stood at 3.46.

FISRTSIPNAASEEGDEDDWARNK [S22R]: the protein stability index stood at 3.99.

Regarding FISRTSIPNAASEEGDEDDWAINK [S22I], the protein stability index came out at 4.24.

For FISRTSIPNAASEEGDEDDWAWNK [S22W], the protein stability index was 2.71.

For FISRTSIPNAASEEGDEDDWAANK [S22A], the protein stability index was determined as 4.15.

With FISRTSIPNAASEEGDEDDWATNK [S22T], the protein stability index was determined as 4.23.

FISRTSIPNAASEEGDEDDWAKNK [S22K]: the protein stability index stood at 4.38.

For FISRTSIPNAASEEGDEDRWASNK [D19R], the protein stability index is 3.5.

For the variant FISRTSIPNAASEEGDEDCWASNK [D19C], the protein stability index is 3.34.

With FISRTSIPNAASEEGDEDPWASNK [D19P], the protein stability index was 3.37.

FISRTSIPNAASEEGDEDKWASNK [D19K]: the protein stability index turned out to be 3.77.

FISRTSIPNAASEEGDEDQWASNK [D19Q]: the protein stability index came out at 3.87.

On to FISRTSIPNAASEEGDEDTWASNK [D19T], for which the protein stability index came out at 3.58.

Turning to FISRTSRPNAASEEGDEDDWASNK [I7R], the protein stability index amounted to 3.58.

On to FISRTSVPNAASEEGDEDDWASNK [I7V], for which the protein stability index is 3.78.

With FISRTSFPNAASEEGDEDDWASNK [I7F], the protein stability index worked out at 2.79.

For the variant FISRTSQPNAASEEGDEDDWASNK [I7Q], the protein stability index is 4.37.

In the case of FISRTSPPNAASEEGDEDDWASNK [I7P], the protein stability index came to 4.79.

Consider FISRTSIPNAASEEGDPDDWASNK [E17P], for which the protein stability index was determined as 3.37.

Regarding FISRTSIPNAASEEGDDDDWASNK [E17D], the protein stability index is 4.06.

As to FMSRTSIPNAASEEGDEDDWASNK [I2M], the protein stability index amounted to 4.84.

Regarding FRSRTSIPNAASEEGDEDDWASNK [I2R], the protein stability index came out at 5.32.

FCSRTSIPNAASEEGDEDDWASNK [I2C]: the protein stability index is 3.34.

In the case of FASRTSIPNAASEEGDEDDWASNK [I2A], the protein stability index was found to be 4.66.

For FISRTSIPNAASEEGDEDDWASYK [N23Y], the protein stability index came out at 3.64.

For the variant FISRTSIPNAASEEGDEDDWASFK [N23F], the protein stability index came out at 3.94.

As to FISRTSIPNAASEEIDEDDWASNK [G15I], the protein stability index worked out at 4.29.

For the variant FISRTSIPNAASEEHDEDDWASNK [G15H], the protein stability index is 3.91.

As for FIFRTSIPNAASEEGDEDDWASNK [S3F], the protein stability index is 3.57.

For the variant FIIRTSIPNAASEEGDEDDWASNK [S3I], the protein stability index was 3.21.

As for FIQRTSIPNAASEEGDEDDWASNK [S3Q], the protein stability index was found to be 4.09.

Consider FIRRTSIPNAASEEGDEDDWASNK [S3R], for which the protein stability index was determined as 4.02.

With FIERTSIPNAASEEGDEDDWASNK [S3E], the protein stability index stood at 4.78.

On to FITRTSIPNAASEEGDEDDWASNK [S3T], for which the protein stability index was 4.26.

As for FIGRTSIPNAASEEGDEDDWASNK [S3G], the protein stability index came to 3.17.

On to FISRWSIPNAASEEGDEDDWASNK [T5W], for which the protein stability index was determined as 2.71.

FISRYSIPNAASEEGDEDDWASNK [T5Y]: the protein stability index was determined as 2.19.

For FISRESIPNAASEEGDEDDWASNK [T5E], the protein stability index was determined as 4.85.

For FISRKSIPNAASEEGDEDDWASNK [T5K], the protein stability index is 4.01.

As for FISRVSIPNAASEEGDEDDWASNK [T5V], the protein stability index was found to be 3.86.

On to FISRTSIPNAASEEGDEDDWASNA [K24A], for which the protein stability index stood at 4.19.

As for FISRTSIPNAASEEGDEDDWASNF [K24F], the protein stability index turned out to be 4.04.

Consider FISRTSIPNAASEEGDEDDWASNR [K24R], for which the protein stability index was 3.08.

Take FISRTSIPNAASEEGDEDDWASNE [K24E]: the protein stability index was 4.69.

With FISRTSIPNAAREEGDEDDWASNK [S12R], the protein stability index was 4.37.

In the case of FISRTSIPNAATEEGDEDDWASNK [S12T], the protein stability index came to 3.56.

For the variant FISRTSIPNAAIEEGDEDDWASNK [S12I], the protein stability index was determined as 3.85.

With FISRTSIPNAADEEGDEDDWASNK [S12D], the protein stability index turned out to be 4.26.

Consider FISRTSIPNAASVEGDEDDWASNK [E13V], for which the protein stability index is 3.29.

Take FISRTSIPNAASWEGDEDDWASNK [E13W]: the protein stability index worked out at 3.54.

For the variant FISRTSIPNAASSEGDEDDWASNK [E13S], the protein stability index was 3.9.

As for FISRTIIPNAASEEGDEDDWASNK [S6I], the protein stability index turned out to be 3.61.

Turning to FISRTVIPNAASEEGDEDDWASNK [S6V], the protein stability index was determined as 3.69.

For the variant FISRTQIPNAASEEGDEDDWASNK [S6Q], the protein stability index worked out at 3.89.

Turning to FISRTMIPNAASEEGDEDDWASNK [S6M], the protein stability index stood at 3.15.

As for FISRTCIPNAASEEGDEDDWASNK [S6C], the protein stability index worked out at 3.95.

With FISRTGIPNAASEEGDEDDWASNK [S6G], the protein stability index worked out at 3.58.

For FISRTSIPNAASEEGFEDDWASNK [D16F], the protein stability index was determined as 3.63.

With FISRTSIPNAASEEGCEDDWASNK [D16C], the protein stability index stood at 3.74.

In the case of FISRTSIPNAASEEGSEDDWASNK [D16S], the protein stability index was 3.65.

On to FISRTSIPNAASEDGDEDDWASNK [E14D], for which the protein stability index amounted to 3.88.

FISRTSIPNAASEHGDEDDWASNK [E14H]: the protein stability index was 3.75.

FISFTSIPNAASEEGDEDDWASNK [R4F]: the protein stability index stood at 3.15.

For the variant FISNTSIPNAASEEGDEDDWASNK [R4N], the protein stability index was found to be 4.64.

Consider FISETSIPNAASEEGDEDDWASNK [R4E], for which the protein stability index is 5.35.

Turning to FISRTSIPNFASEEGDEDDWASNK [A10F], the protein stability index was 3.24.

On to FISRTSIPNSASEEGDEDDWASNK [A10S], for which the protein stability index was 4.34.

For the variant FISRTSIPNRASEEGDEDDWASNK [A10R], the protein stability index worked out at 3.97.

As for FISRTSIPTAASEEGDEDDWASNK [N9T], the protein stability index was 4.21.

For FISRTSIPHAASEEGDEDDWASNK [N9H], the protein stability index was 3.93.

FISRTSIPLAASEEGDEDDWASNK [N9L]: the protein stability index was found to be 3.79.
